Among the data in patent US20250002581A1 are 293T-PD1 (%) values, retold here.

For experiment [1], the target named is PD1 (human) (UniProt Q15116). The experiment is described as follows: flow cytometry on 293T-PD1 cells, antibody 10 ng/ml; average ± deviation. Background: Flow cytometry measures light scatter and fluorescence of single cells or particles in a stream.
For experiment [2], the target named is PD1 (human) (UniProt Q15116). The experiment is described as follows: flow cytometry on 293T-PD1 cells, antibody 10 ng/ml, second anti-human Fc antibody; the filing calls this staining non-specific.

Sequence of PD1 (human) (Q15116 25-288): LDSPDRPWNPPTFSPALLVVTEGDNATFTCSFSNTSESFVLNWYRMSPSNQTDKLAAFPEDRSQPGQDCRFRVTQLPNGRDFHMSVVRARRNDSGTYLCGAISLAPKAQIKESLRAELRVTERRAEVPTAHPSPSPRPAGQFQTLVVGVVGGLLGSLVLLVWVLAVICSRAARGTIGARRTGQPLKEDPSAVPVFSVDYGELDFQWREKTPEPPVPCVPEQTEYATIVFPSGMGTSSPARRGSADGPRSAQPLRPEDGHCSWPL

B1: murine CH101 (antibody, V domains shown)
VH: EVQLEESGPDLVKPSQSLSLTCTVTGYSITSGFAWHWLRQFPGNRLEWMGYIHYSGSTNYNPSLKSRISITRDTSKNQFFLQLNSVTTEDTATFYCARSDFWGQGTFVTVSS
VL: DVVMTQTPLNLSVTFGQPVSISCTSSQSLLDRDGETFMNWLFQRPGQSPKRLIYLVSKLDFGVPDRFTGSGSGTDFTLKISRVEAEDLGIYYCWQGTHFPLTFGGGTKLEIK
Consider B1, for which the 293T-PD1 (%) in the experiment with PD1 (human) [1] was determined as 3.15%.

B2: CH101-huIgG1(L/S) (antibody, not shown: a dimerising Fc or GST)
heavy: B1 VH
light: DVVMTQTPLNLSVTFGQPVSISCTSSQSLLDRDGETFMNWLFQRPGQSPKRLIYLVSKLDFGVPDRFTGSGSGTDFTLKISRVEAEDLGIYYCWQGTHFPLTFGGGTKLEIKRTVAAPSVFIFPPSDEQLKSGTASVVCLLNNFYPREAKVQWKVDNALQSGNSQESVTEQDSKDSTYSLSSTLTLSKADYEKHKVYACEVTHQGLSSPVTKSFNRGEC
In the experiment with PD1 (human) [2], B2 yielded a 293T-PD1 (%) of 38.5%.
